In the series the target is T1, GST-OST1/SnRK2.6, Q940H6.
T1 chain: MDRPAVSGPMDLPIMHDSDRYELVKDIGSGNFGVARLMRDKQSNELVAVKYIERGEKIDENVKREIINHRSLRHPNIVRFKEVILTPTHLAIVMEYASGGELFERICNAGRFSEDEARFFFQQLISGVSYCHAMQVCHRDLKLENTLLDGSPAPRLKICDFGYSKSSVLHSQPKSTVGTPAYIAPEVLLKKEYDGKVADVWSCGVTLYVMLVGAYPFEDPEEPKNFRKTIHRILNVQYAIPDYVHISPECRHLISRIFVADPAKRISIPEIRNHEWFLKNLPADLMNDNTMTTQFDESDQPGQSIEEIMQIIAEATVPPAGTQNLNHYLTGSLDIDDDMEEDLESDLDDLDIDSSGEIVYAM

B1: MPK12 (protein)
chain: MSGESSSGSTEHCIKVVPTHGGRYVQYNVYGQLFEVSRKYVPPIRPIGRGACGIVCAAVNSVTGEKVAIKKIGNAFDNIIDAKRTLREIKLLRHMDHENVITIKDIVRPPQRDIFNDVYIVYELMDTDLQRILRSNQTLTSDQCRFLVYQLLRGLKYVHSANILHRDLRPSNVLLNSKNELKIGDFGLARTTSDTDFMTEYVVTRWYRAPELLLNCSEYTAAIDIWSVGCILGEIMTGQPLFPGKDYVHQLRLITELVGSPDNSSLGFLRSDNARRYVRQLPRYPKQQFAARFPKMPTTAIDLLERMLVFDPNRRISVDEALGHAYLSPHHDVAKEPVCSTPFSFDFEHPSCTEEHIKELIYKESVKFNPDH
With B1, the “in vitro phosphorylation assay with 32P-ATP after dephosphorylation of OST1” value is on record as “did not phosphorylate OST1/SnRK2.6 after dephosphorylation”.

For the origin of these results see patent US20220154204.
